Earlier results in publication PMC8314067.
Read-outs that look alike come from different tables or passages of the source.

Assays:
[1] = target: type II receptor complex (IL-4Rα/IL-13Rα1) (Homo sapiens) (UniProt P24394)
[2] = target: type I receptor complex (IL-4Rα/γc) (Homo sapiens) (UniProt P24394)
[3] = target: type II receptor complex (IL-4Rα/IL-13Rα1) (Homo sapiens) (UniProt P24394); remark: listed apart in the source

| Kd [1] [nM] | Kd [2] [nM] | Kd [3] [nM] | Substance |
| --- | --- | --- | --- |
| 487 | 559 |  | IL-4 (from UniProt P05112) |
|  |  | 20 | IL-13 (from UniProt P35225) |
